Measurements as given in patent US20150344570A1 (published 2015).

B1: GpH7-A5/GpH7-B3 variant E333_03V/GpL16-k0 (antibody, human IgG1, kappa)
heavy 1: not shown
heavy 2: not shown
light: DIVMTQSPLSLPVTPGEPASISCQASESLVHSNRNTYLHWYLQKPGQSPQLLIYKVSNRFSGVPDRFSGSGSGTDFTLKISRVEAEDVGVYYCSQNTHVPPTFGQGTKVEIERTVAAPSVFIFPPSDEQLKSGTASVVCLLNNFYPREAKVQWKVDNALQSGNSQESVTEQDSKDSTYSLSSTLTLSKADYEKHKVYACEVTHQGLSSPVTKSFNRGEC
notes: also called He Ab E333_03V
B2: GpH7-A5/GpH7-B3 variant P238_04F/GpL16-k0 (antibody, human IgG1, kappa)
heavy 1: not shown
heavy 2: not shown
light: B1 light
notes: also called He Ab P238_04F
B3: GpH7-A5/GpH7-B3 variant K334_06M/GpL16-k0 (antibody, human IgG1, kappa)
heavy 1: not shown
heavy 2: not shown
light: B1 light
notes: also called He Ab K334_06M
B4: GpH7-A5/GpH7-B3 variant I336_02A/GpL16-k0 (antibody, human IgG1, kappa)
heavy 1: not shown
heavy 2: not shown
light: B1 light
notes: also called He Ab I336_02A
B5: GpH7-A5/GpH7-B3 variant H268_02A/GpL16-k0 (antibody, human IgG1, kappa)
heavy 1: not shown
heavy 2: not shown
light: B1 light
notes: also called He Ab H268_02A
B6: GpH7-A5/GpH7-B3 variant G236_20W/GpL16-k0 (antibody, human IgG1, kappa)
heavy 1: not shown
heavy 2: not shown
light: B1 light
notes: also called He Ab G236_20W
B7: GpH7-A5/GpH7-B3 variant I336_01G/GpL16-k0 (antibody, human IgG1, kappa)
heavy 1: not shown
heavy 2: not shown
light: B1 light
notes: also called He Ab I336_01G
B8: GpH7-A5/GpH7-B3 variant L234_04F/GpL16-k0 (antibody, human IgG1, kappa)
heavy 1: not shown
heavy 2: not shown
light: B1 light
notes: also called He Ab L234_04F
B9: GpH7-A5/GpH7-B3 variant G236_02A/GpL16-k0 (antibody, human IgG1, kappa)
heavy 1: not shown
heavy 2: not shown
light: B1 light
notes: also called He Ab G236_02A
B10: GpH7-A5/GpH7-B3 variant L234_10E/GpL16-k0 (antibody, human IgG1, kappa)
heavy 1: not shown
heavy 2: not shown
light: B1 light
notes: also called He Ab L234_10E
B11: GpH7-A5/GpH7-B3 variant H268_05P/GpL16-k0 (antibody, human IgG1, kappa)
heavy 1: not shown
heavy 2: not shown
light: B1 light
notes: also called He Ab H268_05P
B12: GpH7-A5/GpH7-B3 variant L328_20W/GpL16-k0 (antibody, human IgG1, kappa)
heavy 1: not shown
heavy 2: not shown
light: B1 light
notes: also called He Ab L328_20W
B13: GpH7-A5/GpH7-B3 variant E333_16H/GpL16-k0 (antibody, human IgG1, kappa)
heavy 1: not shown
heavy 2: not shown
light: B1 light
notes: also called He Ab E333_16H
B14: GpH7-A5/GpH7-B3 variant E333_06M/GpL16-k0 (antibody, human IgG1, kappa)
heavy 1: not shown
heavy 2: not shown
light: B1 light
notes: also called He Ab E333_06M
B15: GpH7-A5/GpH7-B3 variant P238_08L/GpL16-k0 (antibody, human IgG1, kappa)
heavy 1: not shown
heavy 2: not shown
light: B1 light
notes: also called He Ab P238_08L
B16: GpH7-A5/GpH7-B3 variant L234_03V/GpL16-k0 (antibody, human IgG1, kappa)
heavy 1: not shown
heavy 2: not shown
light: B1 light
notes: also called He Ab L234_03V
B17: GpH7-A5/GpH7-B3 variant I332_12R/GpL16-k0 (antibody, human IgG1, kappa)
heavy 1: not shown
heavy 2: not shown
light: B1 light
notes: also called He Ab I332_12R
B18: GpH7-A5/GpH7-B3 variant I336_04F/GpL16-k0 (antibody, human IgG1, kappa)
heavy 1: not shown
heavy 2: not shown
light: B1 light
notes: also called He Ab I336_04F
B19: GpH7-A5/GpH7-B3 variant P238_15Y/GpL16-k0 (antibody, human IgG1, kappa)
heavy 1: not shown
heavy 2: not shown
light: B1 light
notes: also called He Ab P238_15Y
B20: GpH7-A5/GpH7-B3 variant E333_14T/GpL16-k0 (antibody, human IgG1, kappa)
heavy 1: not shown
heavy 2: not shown
light: B1 light
notes: also called He Ab E333_14T
B21: GpH7-A5/GpH7-B3 variant K326_15Y/GpL16-k0 (antibody, human IgG1, kappa)
heavy 1: not shown
heavy 2: not shown
light: B1 light
notes: also called He Ab K326_15Y
B22: GpH7-A5/GpH7-B3 variant L328_14T/GpL16-k0 (antibody, human IgG1, kappa)
heavy 1: not shown
heavy 2: not shown
light: B1 light
notes: also called He Ab L328_14T
B23: GpH7-A5/GpH7-B3 variant P238_10E/GpL16-k0 (antibody, human IgG1, kappa)
heavy 1: not shown
heavy 2: not shown
light: B1 light
notes: also called He Ab P238_10E
B24: GpH7-A5/GpH7-B3 variant P271_02A/GpL16-k0 (antibody, human IgG1, kappa)
heavy 1: not shown
heavy 2: not shown
light: B1 light
notes: also called He Ab P271_02A
B25: GpH7-A5/GpH7-B3 variant L234_15Y/GpL16-k0 (antibody, human IgG1, kappa)
heavy 1: not shown
heavy 2: not shown
light: B1 light
notes: also called He Ab L234_15Y
B26: GpH7-A5/GpH7-B3 variant E333_09D/GpL16-k0 (antibody, human IgG1, kappa)
heavy 1: not shown
heavy 2: not shown
light: B1 light
notes: also called He Ab E333_09D
B27: GpH7-A5/GpH7-B3 variant P271_03V/GpL16-k0 (antibody, human IgG1, kappa)
heavy 1: not shown
heavy 2: not shown
light: B1 light
notes: also called He Ab P271_03V
B28: GpH7-A5/GpH7-B3 variant H268_12R/GpL16-k0 (antibody, human IgG1, kappa)
heavy 1: not shown
heavy 2: not shown
light: B1 light
notes: also called He Ab H268_12R
B29: GpH7-A5/GpH7-B3 variant K326_14T/GpL16-k0 (antibody, human IgG1, kappa)
heavy 1: not shown
heavy 2: not shown
light: B1 light
notes: also called He Ab K326_14T

Biological target: T1, FcγRIa (human, UniProt P12314 16-292)
T1 construct: extracellular domain; also called FcgRI; 1a
Test: SPR (Biacore); He Ab relative to HeCon Ab = 100
Method: Analysis of interaction between objective antibody and the FcγR was carried out using Biacore T100 (GE Healthcare). HBS-EP+ (GE Healthcare) was used as the running buffer, and the measurement temperature was set to 25° C. Chips produced by immobilizing the antigen peptide by the amine coupling method to a Series S Sencor Chip CM5 (GE Healthcare), or alternatively, chips produced by allowing preliminarily biotinylated antigen peptides to interact with and immobilize onto a Series S Sensor Chip SA (certified) (GE Healthcare) were used. Antibodies of interest were captured onto an antigen peptide-immobilized chip, and allowed to interact to each FcγR diluted with running buffer. To regenerate and repeatedly use the chip, the antibodies captured on the chip were washed off by reacting 10 mM glycine-HCl, pH 1.5.

T1 sequence (P12314 16-292): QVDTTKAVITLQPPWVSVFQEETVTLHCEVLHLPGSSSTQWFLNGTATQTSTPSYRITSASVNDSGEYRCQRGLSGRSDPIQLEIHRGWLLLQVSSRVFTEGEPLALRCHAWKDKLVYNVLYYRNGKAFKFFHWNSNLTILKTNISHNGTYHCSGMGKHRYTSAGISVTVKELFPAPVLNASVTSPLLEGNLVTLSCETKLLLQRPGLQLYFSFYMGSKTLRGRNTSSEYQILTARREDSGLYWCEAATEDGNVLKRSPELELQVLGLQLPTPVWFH

Binder	He/Con_1a
B1	105 % of control
B2	101 % of control
B3	105 % of control
B4	106 % of control
B5	109 % of control
B6	105 % of control
B7	109 % of control
B8	101 % of control
B9	100 % of control
B10	100 % of control
B11	109 % of control
B12	103 % of control
B13	101 % of control
B14	102 % of control
B15	101 % of control
B16	104 % of control
B17	100 % of control
B18	106 % of control
B19	101 % of control
B20	102 % of control
B21	106 % of control
B22	100 % of control
B23	102 % of control
B24	104 % of control
B25	100 % of control
B26	104 % of control
B27	102 % of control
B28	106 % of control
B29	104 % of control
